Data as given in patent US20140228541A1.

Columns and labels:
[1] = target: carcinoembryonic antigen (CEA) (UniProt P06731); test: SEC-HPLC shift; the labeled Fab in serum without CEA eluted at 10.331 min
[2] = target: gastrin-releasing peptide receptor on PC-3 cells (UniProt P30550); test: competition with ^125I-BBN on PC-3 cells, repeat experiment
[3] = target: somatostatin receptors on AR42J cells (rat); test: competition with ^111In(DTPA-octreotide) on AR42J cells, apparent IC50
[4] = target: binding target of the bombesin analog IMP493 (not named in the paragraph); test: assay not described

somatostatin receptors on AR42J cells (rat), sequence (P30680 whole entry): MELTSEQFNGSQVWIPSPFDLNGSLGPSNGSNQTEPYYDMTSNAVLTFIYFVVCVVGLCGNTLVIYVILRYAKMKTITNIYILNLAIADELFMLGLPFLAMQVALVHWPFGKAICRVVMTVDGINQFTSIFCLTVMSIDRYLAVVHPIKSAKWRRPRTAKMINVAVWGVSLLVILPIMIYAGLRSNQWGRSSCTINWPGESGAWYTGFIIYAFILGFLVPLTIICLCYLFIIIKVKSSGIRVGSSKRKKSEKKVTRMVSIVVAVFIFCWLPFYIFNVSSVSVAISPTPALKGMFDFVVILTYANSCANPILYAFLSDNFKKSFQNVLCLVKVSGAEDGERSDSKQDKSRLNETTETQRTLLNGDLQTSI
gastrin-releasing peptide receptor on PC-3 cells, sequence (P30550 whole entry): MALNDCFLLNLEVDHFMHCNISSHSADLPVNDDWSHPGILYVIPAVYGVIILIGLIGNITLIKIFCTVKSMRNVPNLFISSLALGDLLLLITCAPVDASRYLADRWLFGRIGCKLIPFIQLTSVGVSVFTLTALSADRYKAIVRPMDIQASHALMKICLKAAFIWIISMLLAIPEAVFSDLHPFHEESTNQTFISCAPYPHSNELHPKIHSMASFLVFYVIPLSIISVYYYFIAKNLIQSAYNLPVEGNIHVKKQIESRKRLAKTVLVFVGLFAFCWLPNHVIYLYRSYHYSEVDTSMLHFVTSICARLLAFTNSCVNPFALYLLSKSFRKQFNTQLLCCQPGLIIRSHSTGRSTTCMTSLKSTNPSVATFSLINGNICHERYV
carcinoembryonic antigen (CEA), sequence (P06731 35-685 limits assumed): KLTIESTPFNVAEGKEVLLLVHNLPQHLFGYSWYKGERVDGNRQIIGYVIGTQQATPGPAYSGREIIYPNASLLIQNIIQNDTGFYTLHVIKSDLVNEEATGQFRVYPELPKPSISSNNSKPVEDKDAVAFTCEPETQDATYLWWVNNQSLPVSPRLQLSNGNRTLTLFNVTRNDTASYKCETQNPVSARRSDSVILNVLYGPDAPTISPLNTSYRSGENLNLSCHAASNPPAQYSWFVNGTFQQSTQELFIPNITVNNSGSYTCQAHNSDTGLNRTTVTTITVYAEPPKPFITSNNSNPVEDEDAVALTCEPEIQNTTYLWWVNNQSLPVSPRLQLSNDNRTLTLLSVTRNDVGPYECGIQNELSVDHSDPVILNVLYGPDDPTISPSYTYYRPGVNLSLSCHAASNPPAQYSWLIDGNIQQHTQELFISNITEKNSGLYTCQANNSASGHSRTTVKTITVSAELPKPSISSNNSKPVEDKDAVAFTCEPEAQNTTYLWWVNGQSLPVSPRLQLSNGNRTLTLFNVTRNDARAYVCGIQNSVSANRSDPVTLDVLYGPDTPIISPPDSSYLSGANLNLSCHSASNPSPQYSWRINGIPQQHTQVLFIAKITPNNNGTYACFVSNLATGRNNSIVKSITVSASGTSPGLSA

Al^18F(NODA-MPAES)-hMN-14 Fab′ was tested, and the SEC-HPLC retention time of major product after adding CEA [1] was 7.21 min.

Work on “commercially available BBN peptide (positive control)” yielded an IC50 [2] of 0.0244 µM.

In the case of ^69Ga(IMP466) (peptide), the IC50 [3] is reported as 0.013 µM.

In the case of “Al^19F(IMP466) (Al^19F complex of NOTA-D-Phe-Cys-Phe-D-Trp-Lys-Thr-Cys-Throl) (peptide)”, the IC50 [3] is reported as 0.0036 µM.

^125I-Bombesin (Perkin-Elmer) (peptide) was tested, and the EC50 [4] was 0.059 µM.
